Assay results: patent US20220155309A1 (NATIONAL UNIVERSITY CORPORATION TOKYO MEDICAL AND DENTAL …, published 2022)
Positions count from the first letter of the chain named. Each block holds one binder with its values, some of them ahead of it.

Assays:
[1] = biological target: T1, Affimer that binds to actin with ALFA-tag introduced (SEQ ID No: 41); assay: fluorescence polarization microscopy of HeLaM cells expressing the ALFA-tagged Affimer, detected with the anti-ALFA-tag Nanobody-cp176-172mVenus fusion
T1 construct: Expressed in HeLaM cells; also called fusion protein of Affimer and an ALFA-tag; Affimer with ALFA-tag introduced
T1 chain: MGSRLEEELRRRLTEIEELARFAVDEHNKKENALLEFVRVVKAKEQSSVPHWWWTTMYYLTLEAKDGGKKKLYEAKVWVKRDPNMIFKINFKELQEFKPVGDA
Text: Specifically, an ALFA-tag (SEQ ID No: 40) was introduced into an Affimer (SEQ ID No: 2) that binds to F-actin as a model system for verifying the above detection system, to obtain a fusion protein having the amino acid sequence set forth in SEQ ID No: 41. This fusion protein was expressed in HeLaM cells. A fusion protein of an anti-ALFA-tag Nanobody (SEQ ID No: 42) and cp176-172mVenus (SEQ ID No: 43) were brought into contact, and fluorescence polarization was observed. The fusion protein of anti-ALFA-tagged Nanobody and cp176-172mVenus was a fusion protein suitable for observation of fluorescence polarization, in which the Nanobody and the cp176-172mVenus were tightly linked (c.f. Example 5).

vimentin [2] = biological target: T2, vimentin (UniProt P08670 2-466, limits assumed); assay: fluorescence polarization microscopy of cells expressing the fusion protein
T2 construct: whole, on cells; Endogenous intracellular intermediate filament; also called vimentin fibers; intracellular vimentin
T2 sequence (P08670 2-466 limits assumed): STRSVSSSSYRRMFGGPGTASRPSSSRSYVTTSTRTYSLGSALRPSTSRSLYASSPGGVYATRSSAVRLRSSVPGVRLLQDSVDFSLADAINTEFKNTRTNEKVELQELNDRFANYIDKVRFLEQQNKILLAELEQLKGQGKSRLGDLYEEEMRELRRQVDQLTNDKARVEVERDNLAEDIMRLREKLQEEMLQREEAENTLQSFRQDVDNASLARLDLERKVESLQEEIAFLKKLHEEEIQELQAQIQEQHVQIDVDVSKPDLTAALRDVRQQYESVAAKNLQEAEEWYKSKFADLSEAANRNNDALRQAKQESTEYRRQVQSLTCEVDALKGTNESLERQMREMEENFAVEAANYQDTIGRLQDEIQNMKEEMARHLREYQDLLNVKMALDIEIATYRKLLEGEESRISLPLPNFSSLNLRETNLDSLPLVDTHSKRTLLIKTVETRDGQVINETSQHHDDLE
Text: (§1) An expression vector in which DNA encoding the fusion protein designed was placed under an appropriate promoter was introduced by a lipofection method (Avalanche-Everyday Transfection Reagent), thereby allowing HeLa cells to express the above fusion protein. The cells expressing the fusion protein were observed by fluorescence polarization microscopy.
(§2) The orientation of polarization was different from that in the previous cp-sfGFP. The cp-sfGFP of Example 5 and the cp176-172mVenus used in this example were basically the same type of fluorescent proteins but different in the position of cp.

vimentin [3] = biological target: T2, vimentin; assay: fluorescence polarization microscopy of HeLa cells expressing the fusion protein
Text: as §1, §2

- binding result (vimentin [3]): binds
B4: fusion protein of vimentin-binding Nanobody and mApple (SEQ ID No: 19) (VHH)
VHH: QVQLVESGGGLVQSGGSLTLTCAASGFTFSAASMRWVRQVPGKGLEWVATIDGTGANSYYSESAKGRFTISRDNARNTLRLQMNNLKPDDTAVYYCANFGRNYWGKGTQVTVMA
notes: Expressed inside HeLa cells; also called fusion protein of mApple and Nanobody

- binding result (vimentin [3]): binds
B5: fusion protein of vimentin-binding Nanobody and cp-sfGFP (SEQ ID No: 17) (VHH)
VHH: B4 VHH with M113V, A114V
notes: Expressed inside HeLa cells; beta-sheet to beta-sheet linkage; also called fusion protein of cp-sfGFP and Nanobody

- binding result (vimentin [2]): binds
B6: fusion protein of Nanobody that binds to vimentin and cpmVenus (SEQ ID No: 26) (VHH)
VHH: B4 VHH with M113V, A114V

The next lines start with the binder.

B1: fusion protein of anti-ALFA-tag Nanobody and cp176-172mVenus (SEQ ID No: 43) (VHH)
VHH: EVQLQESGGGLVQPGGSLRLSCTASGVTISALNAMAMGWYRQAPGERRVMVAAVSERGNAMYRESVQGRFTVTRDFTNKMVSLQMDNLKPEDTAVYYCHVLEDRVDSFHDYWGQGTQVTVVQ
- binding result [1]: binds

B2: fusion protein of Nanobody that binds to vimentin and cpmTurquoise2 (SEQ ID No: 25) (VHH)
VHH: B4 VHH with M113V, A114V
- binding result (vimentin [2]): binds

B3: fusion protein of Nanobody that binds to vimentin and cp176-172mVenus (SEQ ID No: 31) (VHH)
VHH: B4 VHH with M113V, A114V
notes: Expressed inside HeLa cells
- binding result (vimentin [3]): binds
